The values that follow come from article PMC6949303.

The target of assay [1] is Biotinylated JW8-IgE (human). The assay is described as follows: ELISA; FcεRIα immobilised at 30 nM; biotinylated JW8-IgE titrated (60–0.001 nM) or 0.78 nM pre-incubated 30 min with anti-IgE antibodies (0.0078–600 nM); streptavidin-HRP. In general terms: In an ELISA, binding on a coated surface is turned into a signal by an enzyme label.
Assay [2] has as its target Human monoclonal Sus11-IgE (human). The assay is described as follows: SPR; Biacore X100, CM5 chip, HBS-EP+, 10 μl/min; anti-IgE Le27 immobilised (3000 RU), 30 nM Sus11-IgE captured (~100 RU); 1.56–25 nM antibodies/fragments injected 120 s, dissociation 240 s; 1:1 langmuir fit.

As usually defined, the Kd is the equilibrium constant for the complex coming apart. Read a low Kd as a tighter complex. By koff is commonly meant the first-order rate constant of dissociation. For orientation: kon means the rate constant with which the complex forms. Low readings indicate slow association, high ones fast association.

B1: Ligelizumab IgG (antibody, V domains shown)
VH: QVQLVQSGAEVMKPGSSVKVSCKASGYTFSWYWLEWVRQAPGHGLEWMGEIDPGTFTTNYNEKFKARVTFTADTSTSTAYMELSSLRSEDTAVYYCARFSHFSGSNYDYFDYWGQGTLVTVSS
VL: EIVMTQSPATLSVSPGERATLSCRASQSIGTNIHWYQQKPGQAPRLLIYYASESISGIPARFSGSGSGTEFTLTISSLQSEDFAVYYCQQSWSWPTTFGGGTKVEIK
B1 displayed a fold higher potency than omalizumab in inhibiting IgE binding to FcεRIα in assay [1] of 20 fold. In assay [2], this molecule came in with a Kd of 17.8 pM, a koff of 3.3e-05 s⁻¹ and a kon of 1.8e+06 M⁻¹ s⁻¹.

B2: Ligelizumab Fab (Fab, V domains shown)
VH: B1 VH
VL: B1 VL
In the case of B2, in assay [2], the dissociation constant (Kd) came out at 35 pM, the dissociation rate constant (koff) was determined as 0.00032 s⁻¹ and the association rate constant (kon) amounted to 9.2e+06 M⁻¹ s⁻¹.

B3: Ligelizumab F(ab′)2 (protein)
VH: B1 VH
VL: B1 VL
Regarding B3, in assay [2], the Kd worked out at 12.1 pM, the koff is 5.1e-05 s⁻¹ and the kon is 4.2e+06 M⁻¹ s⁻¹.
